According to publication PMC12394548 (Nature Communications, 2025):

B1: valosin contain protein p97/p47 interacting protein 1 (VCPIP1), wild type (enzyme, UniProt Q96JH7 1-1222, looked up)
chain: MSQPPPPPPPLPPPPPPPEAPQTPSSLASAAASGGLLKRRDRRILSGSCPDPKCQARLFFPASGSVSIECTECGQRHEQQQLLGVEEVTDPDVVLHNLLRNALLGVTGAPKKNTELVKVMGLSNYHCKLLSPILARYGMDKQTGRAKLLRDMNQGELFDCALLGDRAFLIEPEHVNTVGYGKDRSGSLLYLHDTLEDIKRANKSQECLIPVHVDGDGHCLVHAVSRALVGRELFWHALRENLKQHFQQHLARYQALFHDFIDAAEWEDIINECDPLFVPPEGVPLGLRNIHIFGLANVLHRPIILLDSLSGMRSSGDYSATFLPGLIPAEKCTGKDGHLNKPICIAWSSSGRNHYIPLVGIKGAALPKLPMNLLPKAWGVPQDLIKKYIKLEEDGGCVIGGDRSLQDKYLLRLVAAMEEVFMDKHGIHPSLVADVHQYFYRRTGVIGVQPEEVTAAAKKAVMDNRLHKCLLCGALSELHVPPEWLAPGGKLYNLAKSTHGQLRTDKNYSFPLNNLVCSYDSVKDVLVPDYGMSNLTACNWCHGTSVRKVRGDGSIVYLDGDRTNSRSTGGKCGCGFKHFWDGKEYDNLPEAFPITLEWGGRVVRETVYWFQYESDSSLNSNVYDVAMKLVTKHFPGEFGSEILVQKVVHTILHQTAKKNPDDYTPVNIDGAHAQRVGDVQGQESESQLPTKIILTGQKTKTLHKEELNMSKTERTIQQNITEQASVMQKRKTEKLKQEQKGQPRTVSPSTIRDGPSSAPATPTKAPYSPTTSKEKKIRITTNDGRQSMVTLKSSTTFFELQESIAREFNIPPYLQCIRYGFPPKELMPPQAGMEKEPVPLQHGDRITIEILKSKAEGGQSAAAHSAHTVKQEDIAVTGKLSSKELQEQAEKEMYSLCLLATLMGEDVWSYAKGLPHMFQQGGVFYSIMKKTMGMADGKHCTFPHLPGKTFVYNASEDRLELCVDAAGHFPIGPDVEDLVKEAVSQVRAEATTRSRESSPSHGLLKLGSGGVVKKKSEQLHNVTAFQGKGHSLGTASGNPHLDPRARETSVVRKHNTGTDFSNSSTKTEPSVFTASSSNSELIRIAPGVVTMRDGRQLDPDLVEAQRKKLQEMVSSIQASMDRHLRDQSTEQSPSDLPQRKTEVVSSSAKSGSLQTGLPESFPLTGGTENLNTETTDGCVADALGAAFATRSKAQRGNSVEELEEMDSQDAEMTNTTEPMDHS
modifications: BODIPY, non-site-selective labelling, DOL 0.23, as the labelled partner of the TR-FRET assays; unlabelled in cryo-EM, as competitor in the displacement assay and in the DUB assay
notes: AlphaFold model AF-Q96JH7-F1-v4 used for model building; One molecule for labelled and unlabelled protein; also called VCPIP1^WT; VCIP135; source: co-expressed with VCP for cryo-EM data set 1 (ion exchange omitted)
B2: p47 (natural protein)
chain: MAAERQEALREFVAVTGAEEDRARFFLESAGWDLQIALASFYEDGGDEDIVTISQATPSSVSRGTAPSDNRVTSFRDLIHDQDEDEEEEEGQRFYAGGSERSGQQIVGPPRKKSPNELVDDLFKGAKEHGAVAVERVTKSPGETSKPRPFAGGGYRLGAAPEEESAYVAGEKRQHSSQDVHVVLKLWKSGFSLDNGELRSYQDPSNAQFLESIRRGEVPAELRRLAHGGQVNLDMEDHRDEDFVKPKGAFKAFTGEGQKLGSTAPQVLSTSSPAQQAENEAKASSSILIDESEPTTNIQIRLADGGRLVQKFNHSHRISDIRLFIVDARPAMAATSFILMTTFPNKELADESQTLKEANLLNAVIVQRLT
notes: p47 cloned into pNIC-Bio2 with an N-terminal His-6-TEV tag; printed residue numbers reach V366 (UBX domain); Used unlabelled in the displacement assay and in cryo-EM; also called adapter protein p47; source: E. coli LOBSTR, purified (Ni resin, ion exchange, SEC)
B3: VCPIP1^ΔVCPID (aa Δ589-666) (enzyme, UniProt Q96JH7 1-1222, looked up)
chain: MSQPPPPPPPLPPPPPPPEAPQTPSSLASAAASGGLLKRRDRRILSGSCPDPKCQARLFFPASGSVSIECTECGQRHEQQQLLGVEEVTDPDVVLHNLLRNALLGVTGAPKKNTELVKVMGLSNYHCKLLSPILARYGMDKQTGRAKLLRDMNQGELFDCALLGDRAFLIEPEHVNTVGYGKDRSGSLLYLHDTLEDIKRANKSQECLIPVHVDGDGHCLVHAVSRALVGRELFWHALRENLKQHFQQHLARYQALFHDFIDAAEWEDIINECDPLFVPPEGVPLGLRNIHIFGLANVLHRPIILLDSLSGMRSSGDYSATFLPGLIPAEKCTGKDGHLNKPICIAWSSSGRNHYIPLVGIKGAALPKLPMNLLPKAWGVPQDLIKKYIKLEEDGGCVIGGDRSLQDKYLLRLVAAMEEVFMDKHGIHPSLVADVHQYFYRRTGVIGVQPEEVTAAAKKAVMDNRLHKCLLCGALSELHVPPEWLAPGGKLYNLAKSTHGQLRTDKNYSFPLNNLVCSYDSVKDVLVPDYGMSNLTACNWCHGTSVRKVRGDGSIVYLDGDRTNSRSTGGKCGCGFKHFWDGKEYDNLNIDGAHAQRVGDVQGQESESQLPTKIILTGQKTKTLHKEELNMSKTERTIQQNITEQASVMQKRKTEKLKQEQKGQPRTVSPSTIRDGPSSAPATPTKAPYSPTTSKEKKIRITTNDGRQSMVTLKSSTTFFELQESIAREFNIPPYLQCIRYGFPPKELMPPQAGMEKEPVPLQHGDRITIEILKSKAEGGQSAAAHSAHTVKQEDIAVTGKLSSKELQEQAEKEMYSLCLLATLMGEDVWSYAKGLPHMFQQGGVFYSIMKKTMGMADGKHCTFPHLPGKTFVYNASEDRLELCVDAAGHFPIGPDVEDLVKEAVSQVRAEATTRSRESSPSHGLLKLGSGGVVKKKSEQLHNVTAFQGKGHSLGTASGNPHLDPRARETSVVRKHNTGTDFSNSSTKTEPSVFTASSSNSELIRIAPGVVTMRDGRQLDPDLVEAQRKKLQEMVSSIQASMDRHLRDQSTEQSPSDLPQRKTEVVSSSAKSGSLQTGLPESFPLTGGTENLNTETTDGCVADALGAAFATRSKAQRGNSVEELEEMDSQDAEMTNTTEPMDHS
modifications: BODIPY, non-site-selective labelling, DOL 0.62, in the TR-FRET binding assay
notes: VCPIP1 full length with the VCPID (aa 589-666) deleted; made from the Strep-VCPIP1 plasmid by PCR; also called VCPID domain truncation

Experiments:
Conditions in all cases: both partners purified
[1] = biological target: T1, valosin-containing protein (VCP)/p97 (UniProt P55072 1-806, terbium chelate (CoraFluor), non-site-selective labelling, DOL 0.33, in the TR-FRET assays only); test: FRET or BRET; TR-FRET displacement assay: 10 nM BODIPY-VCPIP1 WT pre-incubated with 10 nM Tb-VCP, serial dilution of unlabelled VCPIP1 WT or p47; TR-FRET buffer, room temperature
T1 construct: VCP/p97, full length; One molecule for the unlabelled protein (cryo-EM, DUB assay) and the Tb-labelled protein (TR-FRET); Hexamer seen by cryo-EM; also called Tb-VCP; terbium-chelate labeled VCP; source: co-expressed with VCPIP1 for cryo-EM data set 1 (ion exchange omitted)
T1 sequence (P55072 whole entry): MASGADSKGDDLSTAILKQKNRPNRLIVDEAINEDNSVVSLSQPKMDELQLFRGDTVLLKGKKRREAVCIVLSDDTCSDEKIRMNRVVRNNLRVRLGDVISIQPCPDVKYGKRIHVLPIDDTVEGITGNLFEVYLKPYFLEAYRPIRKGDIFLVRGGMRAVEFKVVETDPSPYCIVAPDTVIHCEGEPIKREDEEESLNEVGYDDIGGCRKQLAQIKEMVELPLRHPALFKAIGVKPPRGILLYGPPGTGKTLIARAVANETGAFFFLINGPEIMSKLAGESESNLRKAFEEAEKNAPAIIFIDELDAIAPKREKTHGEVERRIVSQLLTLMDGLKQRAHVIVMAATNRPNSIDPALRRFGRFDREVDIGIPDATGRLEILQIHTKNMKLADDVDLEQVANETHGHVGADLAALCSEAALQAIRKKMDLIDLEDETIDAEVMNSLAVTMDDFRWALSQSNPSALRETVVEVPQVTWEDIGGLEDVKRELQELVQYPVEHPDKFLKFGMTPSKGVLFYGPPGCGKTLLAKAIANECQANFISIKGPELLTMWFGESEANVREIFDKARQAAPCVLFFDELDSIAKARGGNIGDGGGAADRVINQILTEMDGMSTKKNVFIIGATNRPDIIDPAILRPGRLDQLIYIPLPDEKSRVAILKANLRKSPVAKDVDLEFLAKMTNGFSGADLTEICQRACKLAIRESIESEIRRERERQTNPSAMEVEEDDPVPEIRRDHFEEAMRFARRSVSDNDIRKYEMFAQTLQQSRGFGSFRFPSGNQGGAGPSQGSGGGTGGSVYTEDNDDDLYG

[2] = biological target: T1, valosin-containing protein (VCP)/p97; test: FRET or BRET; TR-FRET binding assay of BODIPY-VCPIP1 WT on Tb-VCP, buffer control (no nucleotide added); apparent KD; another protein batch than a3
[3] = biological target: T1, valosin-containing protein (VCP)/p97; test: FRET or BRET; TR-FRET binding assay of BODIPY-VCPIP1 WT on Tb-VCP with 1 uM ADP; apparent KD
[4] = biological target: T1, valosin-containing protein (VCP)/p97; test: FRET or BRET; TR-FRET binding assay: Tb-VCP with a serial dilution of BODIPY-labelled VCPIP1 construct; 25 mM HEPES pH 7.4, 150 mM NaCl, 0.1% BSA, 0.05% Tween-20; 1 h at room temperature; apparent KD
[5] = biological target: T1, valosin-containing protein (VCP)/p97; test: FRET or BRET; TR-FRET binding assay of BODIPY-VCPIP1 WT on Tb-VCP with 1 uM ATPγS; apparent KD
[6] = biological target: T1, valosin-containing protein (VCP)/p97; test: FRET or BRET; TR-FRET binding assay of BODIPY-VCPIP1 WT on Tb-VCP with 1 uM ATP; apparent KD
[7] = biological target: T1, valosin-containing protein (VCP)/p97; test: FRET or BRET; TR-FRET binding assay of BODIPY-VCPIP1 WT on Tb-VCP with 1 uM AMP; apparent KD

Binder | IC50 [1] | Kd [2] | Kd [3] | Kd [4] | Kd [5] | Kd [6] | Kd [7]
B1 | 74.5 nM | 16.5 nM | 67.6 nM | 79.5 nM | 63.9 nM | 68.3 nM | 16.1 nM
B2 | 20.4 nM |  |  |  |  |  | 
B3 |  |  |  | 67.9 nM |  |  | 
